Our source for the Kd values is article PMC2796082.

Where two headings read alike, the source gives them in different places.

What all share (experiment): SPR
In general terms: In SPR one partner is held on a chip, and binding of the other changes the refractive index at the surface.

Assay [1] deals with T1, TGF-β3.
T1 sequence (P10600 301-412, species assumed, looked up): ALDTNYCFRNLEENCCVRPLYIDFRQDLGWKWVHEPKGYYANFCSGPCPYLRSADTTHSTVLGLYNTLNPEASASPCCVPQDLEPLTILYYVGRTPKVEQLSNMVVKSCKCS

The target of assay [2] is TGF-β1.
Chain of TGF-β1 (P01137 279-390): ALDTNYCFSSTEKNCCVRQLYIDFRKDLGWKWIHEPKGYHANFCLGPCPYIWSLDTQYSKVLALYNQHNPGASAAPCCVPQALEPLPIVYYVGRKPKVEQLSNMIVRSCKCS
Assay [3] addresses T2, TGF-β2.
T2 sequence (P61812 303-414, species assumed, looked up): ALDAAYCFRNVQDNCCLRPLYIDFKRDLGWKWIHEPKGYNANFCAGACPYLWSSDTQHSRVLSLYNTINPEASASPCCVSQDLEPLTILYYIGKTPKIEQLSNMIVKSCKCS

Assay [4] deals with T1, TGF-β3. The source holds these as a separate data set.
For assay [5], the target named is TGF-β1. This is another data set of the same source.
The target of assay [6] is T2, TGF-β2. The source holds these as a separate data set.

B1: Sol Δ11, soluble betaglycan uromodulin-like domain (domain or fragment)
chain: GPEPSTRCELSPINASHPVQAIPRRGWKEGEDRIPRPKQPIVPSVQLLPDHREPEEVQGGVDIALSVKCDHEKMVVAVDKDSFQTNGYSGMELTLLDPSCKAKMNGTHFVLESPLNGCGTRHRRSTPDGVVYYNSIVVQAPSPGDSSGWPDGYEDLESGDNGFPGDGDEGETAPLSRAGVVVFNCSLRQLRNPSGFQGQLDGNATFNMELYNTDLFLVPSPGVFSVAENEHVYVEVSVTKADQDLGFAIQTCFLSPYSNPDRMSDYTIIENICPKDDSVKFYSSKRVHFPIPHAEVDKKRFSFLFKSVFNTSLLFLHCELTLCSRKKGSLKLPRCVTPDDACTSLDATMIWTMMQNKKTFTKPLAVVLQVDYKENVPSTKDSSPIPPPPPQIFH
B1: the Kd (usually the equilibrium constant for the complex coming apart) with TGF-β3 [1] was found to be 4400 nM; with TGF-β1 [2], 2900 nM; with TGF-β2 [3] it was 2200 nM; in the assay with TGF-β3 [4], 5800 nM; with TGF-β1 [5] it was 9700 nM; in the assay with TGF-β2 [6], 2600 nM.

B2: Sol Δ10, soluble betaglycan endoglin-like domain (domain or fragment)
chain: GPEPSTRCELSPINASHPVQALMESFTVLSGCASRGTTGLPREVHVLNLRSTDQGPGQRQREVTLHLNPIASVHTHHKPIVFLLNSPQPLVWHLKTERLAAGVPRLFLVSEGSVVQFPSGNFSLTAETEERNFPQENEHLLRWAQKEYGAVTSFTELKIARNIYIKVGEDQVFPPTCNIGKNFLSLNYLAEYLQPKAAEGCVLPSQPHEKEVHIIELITPSSNPYSAFQVDIIVDIRPAQEDPEVVKNLVLILKCKKSVNWVIKSFDVKGNLKVIAPNSIGFGKESERSMTMTKLVRDDIPSTQENLMKWALDNGYRPVTSYTMAPVANRFHLRLENNEEMRDEEVHTIPPELRILLDPDHPPALDNPLFPGEGSPNGGLPFPFPD
Take B2: the dissociation constant (Kd) with TGF-β3 [4] was 5800 nM; with TGF-β1 [5] it was 1900 nM.

B3: Recombinant soluble betaglycan (receptor)
chain: GPEPSTRCELSPINASHPVQALMESFTVLSGCASRGTTGLPREVHVLNLRSTDQGPGQRQREVTLHLNPIASVHTHHKPIVFLLNSPQPLVWHLKTERLAAGVPRLFLVSEGSVVQFPSGNFSLTAETEERNFPQENEHLLRWAQKEYGAVTSFTELKIARNIYIKVGEDQVFPPTCNIGKNFLSLNYLAEYLQPKAAEGCVLPSQPHEKEVHIIELITPSSNPYSAFQVDIIVDIRPAQEDPEVVKNLVLILKCKKSVNWVIKSFDVKGNLKVIAPNSIGFGKESERSMTMTKLVRDDIPSTQENLMKWALDNGYRPVTSYTMAPVANRFHLRLENNEEMRDEEVHTIPPELRILLDPDHPPALDNPLFPGEGSPNGGLPFPFPDIPRRGWKEGEDRIPRPKQPIVPSVQLLPDHREPEEVQGGVDIALSVKCDHEKMVVAVDKDSFQTNGYSGMELTLLDPSCKAKMNGTHFVLESPLNGCGTRHRRSTPDGVVYYNSIVVQAPSPGDSSGWPDGYEDLESGDNGFPGDGDEGETAPLSRAGVVVFNCSLRQLRNPSGFQGQLDGNATFNMELYNTDLFLVPSPGVFSVAENEHVYVEVSVTKADQDLGFAIQTCFLSPYSNPDRMSDYTIIENICPKDDSVKFYSSKRVHFPIPHAEVDKKRFSFLFKSVFNTSLLFLHCELTLCSRKKGSLKLPRCVTPDDACTSLDATMIWTMMQNKKTFTKPLAVVLQVDYKENVPSTKDSSPIPPPPPQIFHGLDTLTV
modifications: glycoprotein, devoid of GAG chains
As for B3, the figures for the equilibrium dissociation constant (Kd) with TGF-β3 [4], with TGF-β1 [5] and with TGF-β2 [6] were 143 nM, 95 nM and 36 nM, respectively.
